# Laboratory results from publication PMC7756681, “Functional Hybrid Molecules for the Visualization of Cancer: PESIN‐Homodimers Combined with Multimodal Molecular Imaging Probes for Positron Emission Tomography and Optical Imaging: Suited for Tracking of GRPR‐Positive Malignant Tissue” (Chemistry (Weinheim an Der Bergstrasse, Germany), 2020).
# Where two headings read alike, the source gives them in different places.
# Tests used:
# [1] = LogD determination of 68Ga-labeled MIUs and bioconjugates (water/1-octanol partition, γ-counter); details: pH 7.4
# Method: Following the synthesis of the MIUs 6 a–13 a and the corresponding bioconjugates 6–13, the radiolabeling efficiency of the compounds with ^68Ga^3+ was investigated. […] In the following, we investigated the lipophilicity of the MIUs [^68Ga]6 a–[^68Ga]13 a and their bioconjugates [^68Ga]6–[^68Ga]13 (Table 1 and Figure 2 C,D).
# (§1) A solution of the respective multimodal imaging unit (MIU) 6a – 13a (5 nmol) or multimodal imaging agent 6 - 14 (5 nmol) in H2O (Tracepur quality, 1mM) was added to 90 - 120 MBq of [68Ga]GaCl in a solution obtained by fractioned elution of an IGG 68Ge/68Ga generator system […]
# (§2) with HCl (0.1 M, 1.6 mL) and subsequent titration to pH 3.5 – 4.2 by addition of sodium acetate solution (1.25 M, 50 – 75 µL). All labeling experiments were performed by addition of 2 mg ascorbic acid to suppress radiolysis-induced product fragmentation. In the labeling experiments of the MIUs 6a – 13a, 1 - 4 mg TCEP x HCl were added and the pH was adjusted to 3.5 – 4.2 by addition of sodium acetate solution (1.25 M). After reaction for 10 min at 45°C, the reaction mixtures were analyzed by analytical radio-HPLC.
# (§3) For 68Ga-6/6a – 68Ga-13/13a, the water/1-octanol partition coefficient (log ) was determined by […]
# (§4) adding 5 µL of the respectively 68Ga-labeled compound (0.8 – 1.2 MBq) to a mixture of phosphate buffer (0.05 M, pH 7.4, 795 µL) and 1-octanol (800 µL). The mixtures were intensively shaken for 5 minutes on a vibrating plate. After subsequent centrifugation at 13 000 rpm for 5 min, 125 µL were taken from each phase and measured in a γ-counter. The logD values were calculated from three or four independent experiments, each performed in triplicate.
# For 14, the water/1-octanol partition coefficient (logD) was determined by semipreparative HPLC.
# For this purpose, 10 µL solution (c = 5 x 10-4 mol/L) of the substance were added to a mixture of 1 mL 1-octanol and 990 µL phosphate buffered solution (0.05 M, pH 7.4) and the mixture was vigorously shaken for 5 minutes. After centrifugation, the phases were separated and both phases were analyzed by semipreparative HPLC. The logD was determined by three separate measurements, each experiment performed in triplicate.
# (§5) Competitive receptor binding assay
# (§6) Stably GRPR-transfected Human Embryonic Kidney 293 cells (HEK-GRPR) were cultured at 37°C in Dulbecco’s Modified Eagle’s Medium (DMEM, high glucose, GlutaMax-I, 500 mL) […]
# (§7) a humidified atmosphere containing 5 % CO2. The medium was exchanged every two or three days and cells were split at >75 % confluence. In vitro binding affinities were determined via competitive displacement experiments which were performed at least trice, each experiment performed in triplicate. A Millipore Multiscreen punch kit and Millipore 96 well filter plates (pore size 1.2 µm) were used. The plates were incubated with PBS/BSA (1%) solution (each well 200 µL) for one hour before use. HEK-GRPR cells were harvested and suspended carefully in Opti- […]
# [2] = Photophysical properties (absorption and emission spectra in PBS); type: physicochemical
# Excerpt: After studying the chemical and biological properties of the MIUs and their corresponding multimodal imaging agents, the photophysical properties of the substances were finally under investigation. Here, we found no significant decrease or shift of the optical and fluorescent characteristics of the bioconjugates compared to the MIUs (Table 2).
# Fig. S27 Normalized absorption and emission spectra of 7 (left) and 7a (right), recorded in PBS
# at a concentration of c = 1.0 x 10-5 mol/L, emission wavelength stated in the graph (bottom, left
# Fig. S28 Normalized absorption and emission spectra of 8 (left) and 8a (right), recorded in PBS
# Fig. S29 Normalized absorption and emission spectra of 9 (left) and 9a (right), recorded in PBS […]
# Fig. S30 Normalized absorption and emission spectra of 10 (left) and 10a (right), recorded in
# PBS at a concentration of c = 1.0 x 10-5 mol/L, emission wavelength stated in the graph (bottom,
# Fig. S31 Normalized absorption and emission spectra of 11 (left) and 11a (right), recorded in
# Fig. S32 Normalized absorption and emission spectra of 12 (left) and 12a (right), recorded in […]
# PC-3 cells = test: Confocal fluorescence microscopy on GRPR-positive PC-3 cells; type: cell-based, human; details: 10 μM, 4 h incubation
# Method: Figure 4 Confocal fluorescence microscopy images for pyridinium-based bioconjugate […]). […] (B) NIR detector window (660-720 nm, 6). (C) Transmitted light. […] After one hour of incubation at ambient temperature, the solution was filtrated and the filters were washed with cold PBS (3 times). The filters were collected and measured by γ-counting. […] were calculated by fitting the obtained data via a nonlinear regression analysis using GraphPad Prism Software (v5.04). […] PC-3 cells were cultured at 37°C in RPMI 1640 medium supplemented with 10% FCS, 1% L-Glutamine and 1% PenStrep in a humidified atmosphere containing 5% CO2. […] Fluorescence microscopy was performed on a Leica TCS SP8 confocal microscope with laser excitation wavelengths of 405 and 638 nm. Overlays of microscopies were generated directly with the operating software or afterwards using FIJI software (v1.50e). PC-3 cells (4 x 104) were seeded two days prior to the measurements in six-well culture plates, each well was equipped with cover slips for microscopy. Medium was exchanged after 24h. After 2 days, the medium was removed and the cells were washed carefully with PBS. Then, 1 mL of a 10 μM solution of 6 in antibiotic-free medium was added, followed by incubation for 4h. […]
# [3] = target: T1, gastrin-releasing peptide receptor (GRPR) (Homo sapiens, UniProt P30550); test: Competitive displacement assay on stably GRPR-transfected HEK cells using [125I]-Tyr4-bombesin; type: binding; details: [125I]-Tyr4-bombesin as competitor, 1 h, ambient temperature, read-out: IC50 (GRPR affinity)
# T1 construct: host or cells: Human Embryonic Kidney 293 cells (HEK-GRPR)
# Method: as §5, §6
# as §7, with “Opti-MEM I (GlutaMAX I) medium. 50 µL of a cell suspension containing […] were seeded in each well. To this, a total volume of 50 µL was added to each well, containing 25 µL (0.012” for “Opti-”
# The competitor was added in 11 increasing concentrations ranging from 0.25 – 500 nM for 6 – […]
# binding of the radioligand. After one hour of incubation at ambient temperature, the solution was filtrated and the filters were washed with cold PBS (3 times). The filters were collected and […]
# [4] = type: physicochemical; details: pH 7.4
# Method: as §1, §2, §3
# as §4, with “The mixtures were intensively shaken for 5 minutes on a vibrating plate.” left out
# For 14, the water/1-octanol partition coefficient (logD) was determined by semipreparative HPLC. […]
# T1 sequence (P30550 whole entry, species assumed): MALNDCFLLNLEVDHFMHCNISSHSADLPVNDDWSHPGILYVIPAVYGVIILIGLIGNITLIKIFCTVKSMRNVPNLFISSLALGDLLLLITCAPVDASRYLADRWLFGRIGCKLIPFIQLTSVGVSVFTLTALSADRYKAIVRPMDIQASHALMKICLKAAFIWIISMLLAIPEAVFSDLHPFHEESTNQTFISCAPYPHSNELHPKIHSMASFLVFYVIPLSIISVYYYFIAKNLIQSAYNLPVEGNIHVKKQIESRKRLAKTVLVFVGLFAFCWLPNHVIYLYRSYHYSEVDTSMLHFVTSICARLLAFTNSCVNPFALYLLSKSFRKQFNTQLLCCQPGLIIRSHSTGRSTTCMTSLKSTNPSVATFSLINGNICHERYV
IC50 [3] [µM],logD [4],Compound,logD [1],Log ϵ ([2]; 1×10^−5 mol L^−1) [M ^−1 cm^−1],λ max ([2]; 1×10^−5 mol L^−1) [nm],"λem ([2]; 1×10^−5 mol L^−1, excitation wavelength λex=400 nm) [nm]",cellular localization of the agent (PC-3 cells)
0.019 ± 0.00113,,CSCC[C@H](NC(=O)[C@H](CC(C)C)NC(=O)[C@H](Cc1c[nH]cn1)NC(=O)CNC(=O)[C@@H](NC(=O)[C@H](C)NC(=O)[C@H](Cc1c[nH]c2ccccc12)NC(=O)[C@H](CCC(N)=O)NC(=O)CCOCCOCCOCCOCCNC(=O)CON=Cc1ccc(C(=O)NCCCN(CCCNC(=O)c2ccc(C=NOCC(=O)NCCOCCOCCOCCOCCC(=O)N[C@@H](CCC(N)=O)C(=O)N[C@@H](Cc3c[nH]c4ccccc34)C(=O)N[C@@H](C)C(=O)N[C@H](C(=O)NCC(=O)N[C@@H](Cc3c[nH]cn3)C(=O)N[C@@H](CC(C)C)C(=O)N[C@@H](CCSC)C(N)=O)C(C)C)cc2)CC(=O)N[C@H](CSC2CC(=O)N(CCN3C(=O)CC(SC[C@H](NC(=O)[C@H](CCCC[n+]4c(C)cc(/C=C/c5cc6c7c(c5)CCCN7CCC6)cc4C)NC(=O)CC[C@H](C(=O)O)N4CCN(CC(=O)O)CCN(CC(=O)O)CC4)C(N)=O)C3=O)C2=O)C(=O)NCCOCCOCC(N)=O)cc1)C(C)C)C(N)=O (some centres unmarked) [Compound 6],-1.71 ± 0.05,4.08,510,630,cytoplasmic localization
0.0187 ± 0.00137,-0.88 ± 0.04,CSCC[C@H](NC(=O)[C@H](CC(C)C)NC(=O)[C@H](Cc1c[nH]cn1)NC(=O)CNC(=O)[C@@H](NC(=O)[C@H](C)NC(=O)[C@H](Cc1c[nH]c2ccccc12)NC(=O)[C@H](CCC(N)=O)NC(=O)CCOCCOCCOCCOCCNC(=O)CON=Cc1ccc(C(=O)NCCCN(CCCNC(=O)c2ccc(C=NOCC(=O)NCCOCCOCCOCCOCCC(=O)N[C@@H](CCC(N)=O)C(=O)N[C@@H](Cc3c[nH]c4ccccc34)C(=O)N[C@@H](C)C(=O)N[C@H](C(=O)NCC(=O)N[C@@H](Cc3c[nH]cn3)C(=O)N[C@@H](CC(C)C)C(=O)N[C@@H](CCSC)C(N)=O)C(C)C)cc2)CC(=O)N[C@H](CSC2CC(=O)N(CCN3C(=O)CC(SC(C)(C)C)C3=O)C2=O)C(=O)NCCOCCOCC(N)=O)cc1)C(C)C)C(N)=O (some centres unmarked) [Compound 14],,,,,
